Measurements: the supplement of paper PMC9112550, “Optimization of the antimicrobial peptide Bac7 by deep mutational scanning” (BMC Biology, 2022)

tested on: Escherichia coli TOP10; experiment: shrunken log2 fold change of peptide-encoding DNA abundance (4.5 h post-induction vs induction); higher = less antimicrobial activity (less host growth inhibition); conditions: time post-induction: 4.5 h; library: site-saturation at positions 5, 18, 19, 20
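Note: peptides expressed intracellularly from a pBAD plasmid library in pooled LB shake-flask culture, induced with 0.3% L-arabinose, DNA abundance read by NGS, three biological replicates, DESeq2 with apeglm shrinkage.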

| Sequence | shrunken log2 fold change |
| --- | --- |
| RRIRDRPPRLPRPRPRPIEKPRP | -0.0135 |
| RRIRQRPPRLPRPRPRPLRYPRP | -0.0738 |
| RRIRCRPPRLPRPRPRPWLWPRP | 0.0682 |
| RRIRGRPPRLPRPRPRPCYKPRP | -0.295 |
| RRIRMRPPRLPRPRPRPPYKPRP | -0.163 |
| RRIRLRPPRLPRPRPRPKIKPRP | -0.36 |
| RRIRKRPPRLPRPRPRPIQWPRP | -0.00149 |
| RRIRNRPPRLPRPRPRPFYIPRP | -0.51 |
| RRIRSRPPRLPRPRPRPYFCPRP | -0.354 |
| RRIRPRPPRLPRPRPRPKIVPRP | 0.026 |
| RRIRNRPPRLPRPRPRPTMHPRP | -0.159 |
| RRIRVRPPRLPRPRPRPFRWPRP | -0.0443 |
| RRIRNRPPRLPRPRPRPYWEPRP | -0.293 |
| RRIRARPPRLPRPRPRPTMEPRP | 0.564 |
| RRIRERPPRLPRPRPRPMSHPRP | -0.741 |
| RRIRWRPPRLPRPRPRPHLRPRP | 0.039 |
| RRIRVRPPRLPRPRPRPWTDPRP | -0.0083 |
| RRIRFRPPRLPRPRPRPHHAPRP | -0.291 |
| RRIRFRPPRLPRPRPRPEDRPRP | 0.045 |
| RRIRNRPPRLPRPRPRPHHVPRP | -0.0011 |
| RRIRYRPPRLPRPRPRPCRFPRP | -0.241 |
| RRIRCRPPRLPRPRPRPCHHPRP | -0.332 |

| Sequence | shrunken log2 fold change |
| --- | --- |
| RRIRWRPPRLPRPRPRPVDMPRP | -0.0613 |
| RRIRDRPPRLPRPRPRPAAHPRP | 0.66 |
| RRIRPRPPRLPRPRPRPTIGPRP | -0.128 |
| RRIRQRPPRLPRPRPRPEMTPRP | 0.0231 |
| RRIRYRPPRLPRPRPRPLFAPRP | -0.492 |
| RRIRERPPRLPRPRPRPIWSPRP | 0.0428 |
| RRIRTRPPRLPRPRPRPSAHPRP | -0.229 |
| RRIRIRPPRLPRPRPRPEFIPRP | -0.00702 |
| RRIRMRPPRLPRPRPRPYIGPRP | -0.00926 |
| RRIRHRPPRLPRPRPRPCNSPRP | -0.0938 |
| RRIRNRPPRLPRPRPRPYPMPRP | 0.133 |
| RRIRPRPPRLPRPRPRPAAFPRP | 0.207 |
| RRIRWRPPRLPRPRPRPCIEPRP | -0.0674 |
| RRIRSRPPRLPRPRPRPKYLPRP | -0.756 |
| RRIRSRPPRLPRPRPRPGKTPRP | -0.112 |
| RRIRYRPPRLPRPRPRPAIWPRP | 0.0587 |
| RRIRMRPPRLPRPRPRPPSNPRP | 0.104 |
| RRIRWRPPRLPRPRPRPLTIPRP | -0.162 |
| RRIRIRPPRLPRPRPRPHREPRP | -0.0487 |
| RRIRDRPPRLPRPRPRPHGAPRP | 0.211 |
| RRIRSRPPRLPRPRPRPCHAPRP | -0.0203 |
| RRIRERPPRLPRPRPRPLTHPRP | -0.413 |

| Sequence | shrunken log2 fold change |
| --- | --- |
| RRIRHRPPRLPRPRPRPAYWPRP | 2.61 |
| RRIRNRPPRLPRPRPRPTAVPRP | 0.495 |
| RRIRFRPPRLPRPRPRPYQRPRP | -0.238 |
| RRIRKRPPRLPRPRPRPVTHPRP | 0.0561 |
| RRIRFRPPRLPRPRPRPDYIPRP | 0.209 |
| RRIRTRPPRLPRPRPRPWQRPRP | 0.157 |
| RRIRHRPPRLPRPRPRPWYFPRP | -0.813 |
| RRIRGRPPRLPRPRPRPRKHPRP | 0.632 |
| RRIRRRPPRLPRPRPRPIHTPRP | 0.00898 |
| RRIRYRPPRLPRPRPRPFAIPRP | -0.158 |
| RRIRVRPPRLPRPRPRPFFVPRP | -0.0592 |
| RRIRPRPPRLPRPRPRPVCCPRP | 0.122 |
| RRIRNRPPRLPRPRPRPHWRPRP | 0.201 |
| RRIRPRPPRLPRPRPRPTRIPRP | 0.105 |
| RRIRQRPPRLPRPRPRPALYPRP | 0.172 |
| RRIRRRPPRLPRPRPRPMTTPRP | 0.0808 |
| RRIRNRPPRLPRPRPRPGGCPRP | 0.203 |
| RRIRIRPPRLPRPRPRPWYTPRP | -0.122 |
| RRIRWRPPRLPRPRPRPQFWPRP | 0.105 |
| RRIRFRPPRLPRPRPRPWWVPRP | 0.00262 |
| RRIRNRPPRLPRPRPRPWRCPRP | -0.0792 |
| RRIRWRPPRLPRPRPRPPWMPRP | 0.371 |

| Sequence | shrunken log2 fold change |
| --- | --- |
| RRIRHRPPRLPRPRPRPMKIPRP | -0.0248 |
| RRIRCRPPRLPRPRPRPWCNPRP | -0.412 |
| RRIRCRPPRLPRPRPRPKFQPRP | -0.0341 |
| RRIRGRPPRLPRPRPRPELAPRP | 2 |
| RRIRNRPPRLPRPRPRPNYCPRP | 0.0133 |
| RRIRCRPPRLPRPRPRPVSRPRP | 0.344 |
| RRIRLRPPRLPRPRPRPWSTPRP | -0.137 |
| RRIRFRPPRLPRPRPRPQAWPRP | 0.15 |
| RRIRRRPPRLPRPRPRPVVEPRP | 0.339 |
| RRIRQRPPRLPRPRPRPLRAPRP | 0.825 |
| RRIRWRPPRLPRPRPRPYQVPRP | -0.268 |
| RRIRRRPPRLPRPRPRPGPKPRP | 0.255 |
| RRIRGRPPRLPRPRPRPFQEPRP | 0.0152 |
| RRIRDRPPRLPRPRPRPHETPRP | -0.0736 |
| RRIRFRPPRLPRPRPRPSWLPRP | 0.156 |
| RRIRARPPRLPRPRPRPEWRPRP | 0.37 |
| RRIRTRPPRLPRPRPRPTCMPRP | -0.262 |
| RRIRFRPPRLPRPRPRPIYDPRP | -0.626 |
| RRIRCRPPRLPRPRPRPAYCPRP | -0.363 |
| RRIRWRPPRLPRPRPRPKEIPRP | 0.487 |
| RRIRRRPPRLPRPRPRPEAFPRP | 0.842 |
| RRIRRRPPRLPRPRPRPDTSPRP | 0.0612 |

| Sequence | shrunken log2 fold change |
| --- | --- |
| RRIRGRPPRLPRPRPRPSETPRP | 0.223 |
| RRIRFRPPRLPRPRPRPMGLPRP | -0.00847 |
| RRIRFRPPRLPRPRPRPRNEPRP | -0.0379 |
| RRIRGRPPRLPRPRPRPEQWPRP | 0.346 |
| RRIRCRPPRLPRPRPRPHIMPRP | -1.4 |
| RRIRRRPPRLPRPRPRPNTAPRP | 0.0812 |
| RRIRQRPPRLPRPRPRPHPQPRP | 0.24 |
| RRIRFRPPRLPRPRPRPYSGPRP | -0.293 |
| RRIRVRPPRLPRPRPRPLWWPRP | 0.855 |
| RRIRPRPPRLPRPRPRPCICPRP | -0.728 |
| RRIRDRPPRLPRPRPRPLESPRP | 0.258 |
| RRIRTRPPRLPRPRPRPFSGPRP | -0.0204 |
| RRIRARPPRLPRPRPRPKTKPRP | 0.0731 |
| RRIRIRPPRLPRPRPRPRTPPRP | 0.089 |
| RRIRTRPPRLPRPRPRPWAYPRP | 0.013 |
| RRIRQRPPRLPRPRPRPIPHPRP | 0.021 |
| RRIRERPPRLPRPRPRPSFMPRP | -0.546 |
| RRIRDRPPRLPRPRPRPYSMPRP | -0.0516 |
| RRIRQRPPRLPRPRPRPTNQPRP | 0.0625 |
| RRIRARPPRLPRPRPRPWSSPRP | -0.656 |
| RRIRARPPRLPRPRPRPPYNPRP | -0.399 |
